Measured values as given in IntAct's records for PubMed 19536132.

B1: Conserved oligomeric Golgi complex subunit 4 (Homo sapiens), Q9H9E3 (parent)
chain: MADLDSPPKLSGVQQPSEGVGGGRCSEISAELIRSLTELQELEAVYERLCGEEKVVERELDALLEQQNTIESKMVTLHRMGPNLQLIEGDAKQLAGMITFTCNLAENVSSKVRQLDLAKNRLYQAIQRADDILDLKFCMDGVQTALRSEDYEQAAAHTHRYLCLDKSVIELSRQGKEGSMIDANLKLLQEAEQRLKAIVAEKFAIATKEGDLPQVERFFKIFPLLGLHEEGLRKFSEYLCKQVASKAEENLLMVLGTDMSDRRAAVIFADTLTLLFEGIARIVETHQPIVETYYGPGRLYTLIKYLQVECDRQVEKVVDKFIKQRDYHQQFRHVQNNLMRNSTTEKIEPRELDPILTEVTLMNARSELYLRFLKKRISSDFEVGDSMASEEVKQEHQKCLDKLLNNCLLSCTMQELIGLYVTMEEYFMRETVNKAVALDTYEKGQLTSSMVDDVFYIVKKCIGRALSSSSIDCLCAMINLATTELESDFRDVLCNKLRMGFPATTFQDIQRGVTSAVNIMHSSLQQGKFDTKGIESTDEAKMSFLVTLNNVEVCSENISTLKKTLESDCTKLFSQGIGGEQAQAKFDSCLSDLAAVSNKFRDLLQEGLTELNSTAIKPQVQPWINSFFSVSHNIEEEEFNDYEANDPWVQQFILNLEQQMAEFKASLSPVIYDSLTGLMTSLVAVELEKVVLKSTFNRLGGLQFDKELRSLIAYLTTVTTWTIRDKFARLSQMATILNLERVTEILDYWGPNSGPLTWRLTPAEVRQVLALRIDFRSEDIKRLRL

Variants of: B1
Settings: with scfd1_human SCFD1, Q8WVM8
Sequence of scfd1_human SCFD1, Q8WVM8 (Q8WVM8 whole entry, looked up): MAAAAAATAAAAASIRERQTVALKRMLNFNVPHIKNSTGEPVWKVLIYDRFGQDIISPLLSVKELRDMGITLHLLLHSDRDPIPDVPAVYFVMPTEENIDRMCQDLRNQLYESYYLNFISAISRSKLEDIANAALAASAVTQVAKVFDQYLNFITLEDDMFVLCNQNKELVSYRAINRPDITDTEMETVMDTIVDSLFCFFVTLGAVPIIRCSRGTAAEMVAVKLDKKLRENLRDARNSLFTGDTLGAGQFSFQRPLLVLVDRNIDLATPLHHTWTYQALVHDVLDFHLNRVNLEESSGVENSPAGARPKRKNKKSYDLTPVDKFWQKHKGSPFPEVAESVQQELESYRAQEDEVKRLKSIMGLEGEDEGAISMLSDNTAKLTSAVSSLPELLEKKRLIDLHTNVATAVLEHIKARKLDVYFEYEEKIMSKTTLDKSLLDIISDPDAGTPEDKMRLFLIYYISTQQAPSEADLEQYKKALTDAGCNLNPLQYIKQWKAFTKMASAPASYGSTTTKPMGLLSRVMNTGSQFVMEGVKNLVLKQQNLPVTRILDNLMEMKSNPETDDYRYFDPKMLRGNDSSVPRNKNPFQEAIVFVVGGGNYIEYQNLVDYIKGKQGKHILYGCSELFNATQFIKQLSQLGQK

Row | Variant | effect of a mutation on the interaction
1 | E71A | disrupting interaction
2 | E53A | disrupting interaction

Variants of: B1
Settings: with scfd1_human SCFD1, Q8WVM8
Remark: another data set of the same source

Row | Variant | effect of a mutation on the interaction
3 | E53A | decreasing interaction
